T1: CD23 on B cells (human, UniProt P06734 1-321)
T1 construct: whole, on cells; also called CD23 receptor; CD23+ B-cells
T1 sequence (looked up): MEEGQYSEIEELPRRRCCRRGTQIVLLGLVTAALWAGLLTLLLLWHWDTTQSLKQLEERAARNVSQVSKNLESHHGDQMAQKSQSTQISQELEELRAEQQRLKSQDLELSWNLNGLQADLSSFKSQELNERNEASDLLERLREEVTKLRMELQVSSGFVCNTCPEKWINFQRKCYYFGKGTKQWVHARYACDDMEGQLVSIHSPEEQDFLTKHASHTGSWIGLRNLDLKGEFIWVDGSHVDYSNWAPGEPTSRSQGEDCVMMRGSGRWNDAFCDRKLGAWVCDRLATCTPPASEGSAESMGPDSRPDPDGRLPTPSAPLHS

T2: FcεRI on primary human basophils (human, UniProt P12319 26-257)
T2 construct: whole, on cells; on cells it stands with gamma chains (and a beta chain); also called FcεRIα on basophils; E2_79-treated basophils
T2 sequence (looked up): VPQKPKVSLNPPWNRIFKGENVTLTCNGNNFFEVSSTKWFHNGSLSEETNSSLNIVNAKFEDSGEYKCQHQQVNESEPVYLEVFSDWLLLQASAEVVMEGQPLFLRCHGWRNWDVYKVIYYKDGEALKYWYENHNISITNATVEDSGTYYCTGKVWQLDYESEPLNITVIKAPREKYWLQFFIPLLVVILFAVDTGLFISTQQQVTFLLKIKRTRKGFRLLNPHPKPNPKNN


Columns and labels:
CD23 on B cells [1] = biological target: T1, CD23 on B cells; assay: summary sentence of Example 1
[2] = biological target: T2, FcεRI on primary human basophils; assay: flow cytometry on primary human basophils, anti-biotin staining
Excerpt: (§1) Blood was drawn from two healthy volunteers and a third volunteer with a history of food allergy ranging in age from 21 to 37 (the protocol for this study was approved by the Institutional Review Board of Stanford University, and all informed consent was obtained from all subjects). Blood was collected in heparin vacutainer tubes (BD), and washed in 10 blood volumes of BF buffer (RPMI-1640 (Life Technologies) supplemented with 10% fetal calf serum (FCS; Gibco) and 1% penicillin/streptomycin (Gibco)). […] The following day cells were washed three times with BF buffer at 4° C. and stained for analysis.
(§2) Stained cells were then lysed with RBS lysis buffer (BioLegend) for 5 min at room temperature, and washed with FACS buffer (PBS pH 7.4 supplemented with 10% FCS). Data were collected on a DxP FACSCAN from Cytek Development in Fremont, Calif. (10 colors with three lasers—488, 639, 407) using FlowJo CE and analyzed using FlowJo (version 10).

CD23 on B cells [3] = biological target: T1, CD23 on B cells; assay: flow cytometry on CD23+ B cells
Excerpt: as §1, §2

| binding result (CD23 on B cells [1]) | binding result [2] | binding result (CD23 on B cells [3]) | Binder |
| --- | --- | --- | --- |
| binds | binds | – | IgE-R419N-Fc3-4 (other, additional N-linked glycan at N419 (Asn-92 of SEQ ID NO: 2), Mammalian derived (HEK-6E); biotinylated in the basophil exchange assays; also called R419N-IgE-Fc3-4; R419N mutant) CADSNPRGVSAYLSRPSPFDLFIRKSPTITCLVVDLAPSKGTVNLTWSRASGKPVNHSTRKEEKQRNGTLTVTSTLPVGTRDWIEGETYQCNVTHPHLPRALMRSTTKTSGPRAAPEVYAFATPEWPGSRDKRTLACLIQNFMPEDISVQWLHNEVQLPDARHSTTQPRKTKGSGFFVFSRLEVTRAEWEQKDEFICRAVHEAASPSQTVQRAVSVNP |
| – | binds | binds | IgE-Fc3-4 (other, Made both in insect cells (High Five) and in mammalian cells (HEK-6E); the mammalian protein, biotinylated, was used in the cell assays; also called wild-type IgE-Fc3-4; WT IgE-Fc3-4) CADSNPRGVSAYLSRPSPFDLFIRKSPTITCLVVDLAPSKGTVNLTWSRASGKPVNHSTRKEEKQRNGTLTVTSTLPVGTRDWIEGETYQCRVTHPHLPRALMRSTTKTSGPRAAPEVYAFATPEWPGSRDKRTLACLIQNFMPEDISVQWLHNEVQLPDARHSTTQPRKTKGSGFFVFSRLEVTRAEWEQKDEFICRAVHEAASPSQTVQRAVSVNP |
